In the RNAGym collection of RNA variant scans (doi:10.7554/elife.80360):

B1: Hairpin Ribozyme (parent)
chain: GUCCUCUUUCACGUGCGCGUGAAAGAGAGAAGUGAACCAGAGAAACACACGUUGUGGUAUAUUACCUGGUA

Variants of: B1
Test: self-cleavage, relative activity (ratio to wild type); higher = more cleavage; co-transcriptional

In order of rising self-cleavage:
1. GUCCUCUUUCACGUUCGCGUGAAAGAGAGAAAUGAACCAGAGAAACACACGUUGUGGUAUAUUACCUGGUA [G15U G32A]  0.0947
2. GUCCUCUUUCACGUUCGCGUGAAAGAGAGAAGUGAACAAGAGAAACACACGUUGUGGUAUAUUACCUGGUA [G15U C38A]  0.124
3. GUCCUCUUUCACGUUCGCGUGAAAGAGACAAGUGAACCAGAGAAACACACGUUGUGGUAUAUUACCUGGUA [G15U G29C]  0.125
4. GUCCUCUUUCACGUUCGCGUGAAAGAGAGAAGUGAACCAGAGAAACACACGUUGUGGUAUAUUACCUCGUA [G15U G68C]  0.137
5. GUCCUCUUUCACGUUCGCGUGAAAGAGAGAAUUGAACCAGAGAAACACACGUUGUGGUAUAUUACCUGGUA [G15U G32U]  0.144
6. GUCCUCUUUCACGUUCGCGUGAAAGAGAGAAGUGAACCAGAGAAAGACACGUUGUGGUAUAUUACCUGGUA [G15U C46G]  0.167
7. GUCCUCUUUCACGUUCGCGUGAAAGAGAGAAGUGAACCAGAGAAACACACGUUGUGGUAUAUUACCUGUUA [G15U G69U]  0.176
8. GUCCUCUUUCACGUUCGCGUGAAAGAGAGAAGGGAACCAGAGAAACACACGUUGUGGUAUAUUACCUGGUA [G15U U33G]  0.18
9. GUCCUCUUUCACGUUCGCGUGAAAGAGAGAAGUGAACCAGAGAAACACACGUUGUGGUAUAGUACCUGGUA [G15U U62G]  0.189
10. GUCCUCUUUCACGUUCGCGUGAAAGAGAGAAGUGAACCAGAGAAACACACGUUGUCGUAUAUUACCUGGUA [G15U G56C]  0.195
11. GUCCUCUUUCACGUUCGCGUGAAAGAGAGAAGUGAACCAGAGAAACACACGUUGUGGUAUAAUACCUGGUA [G15U U62A]  0.2
12. GUCCUCUUUCACGUUCGCGUGAAAGAGAGAAGUGAACCAGAGAAACACACGUUGUGGUAUAUUACCAGGUA [G15U U67A]  0.206
13. GUCCUCUUUCACGUUCGCGUGAAAGAGAGAAGAGAACCAGAGAAACACACGUUGUGGUAUAUUACCUGGUA [G15U U33A]  0.248
14. GUCCUCUUUCACGUUCGCGUGAAAGAGAGAAGUGAACCAGAGAAACACACGUUGGGGUAUAUUACCUGGUA [G15U U55G]  0.302
15. GUCCUCUUUCACGUUCGCGUGAAAGAGAGAAGUGAACCAGAGAAACACACGUUGCGGUAUAUUACCUGGUA [G15U U55C]  0.306
16. GUCCUCUUUCACGUUCGCGUGAAAGAGAGAAGUGAACCAGAGAAACACAGGUUGUGGUAUAUUACCUGGUA [G15U C50G]  0.353
17. GUCCUCUUUCACGUUCGCGUGAAAGAGAGAAGUGAACCAGAGAAACACACGUUGUGGUAUAUUACAUGGUA [G15U C66A]  0.367
18. GUCCUCUUUCACGUUCGCGUGAAAGAGAGAAGUGAACCAGAGAAACACACGUUCUGGUAUAUUACCUGGUA [G15U G54C]  0.385
19. GUCCUCUUUCACGUUCGCGUGAAAGAGAGAAGUGAACCAGACAAACACACGUUGUGGUAUAUUACCUGGUA [G15U G42C]  0.44
20. GUCCUCUUUCACGUUCGCGUGAAAGAGAGAAGUGAACCAGAGAAACACACGUUGUGGUAUACUACCUGGUA [G15U U62C]  0.461
21. GUCCUCUUUCACGUGAGCGUGAAAGAGCGAAGUGAACCAGAGAAACACACGUUGUGGUAUAUUACCUGGUA [C16A A28C]  0.569
22. GUCCUCUUUCACGUGAGCGUGGAAGAGAGAAGUGAACCAGAGAAACACACGUUGUGGUAUAUUACCUGGUA [C16A A22G]  0.617
23. GUCCUCUUUCACGUUCGCGUGAAAGAGAGAAGUGAACUAGAGAAACACACGUUGUGGUAUAUUACCUGGUA [G15U C38U]  0.662
24. GUCCUCUUUCACGUUCGCGUGAAACAGAGAAGUGAACCAGAGAAACACACGUUGUGGUAUAUUACCUGGUA [G15U G25C]  0.705
25. GUCCUCUUUCACGUGAGCGUGAUAGAGAGAAGUGAACCAGAGAAACACACGUUGUGGUAUAUUACCUGGUA [C16A A23U]  0.727
26. GUCCUCUUUCACGUUCGCGGGAAAGAGAGAAGUGAACCAGAGAAACACACGUUGUGGUAUAUUACCUGGUA [G15U U20G]  0.853
27. GUCCUCUUUCACGUUCGCGUGAAAGAGAGAAGUGAACCAGAGAAACACACGAUGUGGUAUAUUACCUGGUA [G15U U52A]  0.863
28. GUCCUCUUUCACGUUCGCGUGAAAGAGAGAAGUGAACCAGAGAAACACACGUUGUGGCAUAUUACCUGGUA [G15U U58C]  0.889
29. GUCCUCUUUCACGUGAGCGUGAAAGGGAGAAGUGAACCAGAGAAACACACGUUGUGGUAUAUUACCUGGUA [C16A A26G]  0.911
30. GUCCUCUUUCACGUUCGCGUGAAAGAGAGAAGUGAACCAGAGAAACACACGGUGUGGUAUAUUACCUGGUA [G15U U52G]  0.94
31. GUCCUCUUUCACGUUCGCGAGAAAGAGAGAAGUGAACCAGAGAAACACACGUUGUGGUAUAUUACCUGGUA [G15U U20A]  0.941
32. GUCCUCUUUCACGUUCGCAUGAAAGAGAGAAGUGAACCAGAGAAACACACGUUGUGGUAUAUUACCUGGUA [G15U G19A]  0.968
33. GUCCUCUUUCACGUGAGCGUGAAAGAGGGAAGUGAACCAGAGAAACACACGUUGUGGUAUAUUACCUGGUA [C16A A28G]  0.988
34. GUCCUCUUUCACGUUCGCGUGAAAGAGAGAAGUGAACCAGAGAAACACACGUUGUGGUAUAUUACCUGGCA [G15U U70C]  0.999
35. GUCCUCUUUCACGUUCGCGUGAAAGAGAGAAGUGAACCAGAGAAACACACGUUGUGGUACAUUACCUGGUA [G15U U60C]  1.01
36. GUCCUCUUUCACGUUCGUGUGAAAGAGAGAAGUGAACCAGAGAAACACACGUUGUGGUAUAUUACCUGGUA [G15U C18U]  1.03
37. GUCCUCUUUCACGUUCUCGUGAAAGAGAGAAGUGAACCAGAGAAACACACGUUGUGGUAUAUUACCUGGUA [G15U G17U]  1.06
38. GUCCUCUUUCACGUUCGCGUGAAAGAGAGAAGUGAACCAGAGAAACACACGUUGUGGUAUAUUAACUGGUA [G15U C65A]  1.15
